± gives the standard error. Variants at the floor of the assay were thinned out.
B1: glmS ribozyme (parent)
chain: AUAAAAGCGCCAGAACUACAGAAAUGUAGUUGACGAGGAGGAGGUUUAUCGAAUUUUCGGCGGAUGCCUCCAAA

Experiments:
Conditions in all cases: with glucosamine-6-phosphate
[1] = variants of: B1; assay: self-cleavage kobs at 40 uM GlcN6P; higher = faster cleavage; RNA array
Method in brief: (§1)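 kcat and KM were obtained from weighted Michaelis–Menten fits across concentrations of kobs values. Those came from one- or two-exponential decay fits to per-tile medians normalised to baseline and to non-cleaving reference variants. The variants were barcoded ribozymes transcribed in situ by E. coli RNA polymerase on sequenced MiSeq chips and tracked through a hybridised Cy3 probe at 37 °C, with 40 μM to 10 mM glucosamine-6-phosphate in HEPES/KCl/Mg(OAc)2 buffer flowed in.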

[2] = variants of: B1; assay: self-cleavage kobs at 160 uM GlcN6P; higher = faster cleavage; RNA array
Method in brief: as §1

[3] = variants of: B1; assay: self-cleavage kobs at 640 uM GlcN6P; higher = faster cleavage; RNA array
Method in brief: as §1

[4] = variants of: B1; assay: self-cleavage kobs at 10000 uM GlcN6P; higher = faster cleavage; RNA array
Method in brief: as §1

[5] = variants of: B1; assay: self-cleavage kobs at 2500 uM GlcN6P; higher = faster cleavage; RNA array
Method in brief: as §1

Row | Variant | self-cleavage kobs at 40 uM GlcN6P [1] [s⁻¹] | self-cleavage kobs at 160 uM GlcN6P [2] [s⁻¹] | self-cleavage kobs at 640 uM GlcN6P [3] [s⁻¹] | self-cleavage kobs at 10000 uM GlcN6P [4] [s⁻¹] | self-cleavage kobs at 2500 uM GlcN6P [5] [s⁻¹]
1 | AUAAAAGCGCCAGAACUACAGAAAUGUAGUUGUCGAGGAGGAGGUUUACCGAAUUUUCGGCGGAUGCCUCCAAA [A33U U49C] | < 1e-05 | < 1e-05 | < 1e-05 | < 1e-05 | 
2 | AUAAAGGCGCCAGAACUACAGAAAUGUAGUCGACGAGGAGGAGGUUUAUCGAAUUUUCGGCGGAUGCAUCCAAA [A6G U31C C68A] | < 1e-05 |  |  |  | 
3 | AUAAAAGCGCCAGAACUACAGAAAUGUAGUUGUCGAGGAGGAGGUUUAUCCAAUUUUCGUCGUAUGCCUCCAAA [A33U G51C G60U G63U] | < 1e-05 |  |  |  | 
4 | AUAAAAGCGCCAGAACUACAGAAAUGUAAUUGAUGAGGAGGAGGUUGGUCGAAUUUUCGGCGGAUGGCUCCAAA [G29A C34U U47G A48G C67G] | 0.000265 ± 0.0001 |  |  | 7.2e-05 ± 3.2e-05 | 
5 | AUAAAGGCGCCAGAACUACAGAAAUGUAGUUCAGGAGGAGGAGGUUUAUCGAAUUUUCGGCGGAUGCCUCUAAA [A6G G32C C34G C71U] | < 1e-05 | < 1e-05 | < 1e-05 |  | 
6 | AUAAAAGCGCCAGAACUACAGAAAUGUAGUGGACGAGGAGGAGUUUUAUCGAAUUUUCGGUGGAUGCCUCCAAA [U31G G44U C61U] | < 1e-05 |  |  | < 1e-05 | 
7 | AUAAAAGAGUCAGAACUACAGAAAUGUAGUUGAGGAGGAGGAGGUUUAUCGAAUUUUCGGCGGAUGCCUCCAAA [C8A C10U C34G] | < 1e-05 |  |  |  | 
8 | AUAAAAGCGCCAGAACUACAGAAAUGUAGUUGACGAGGAGGAGGUUUUUCGACUUUUCGGCGGAUGCCUCCAAA [A48U A53C] | < 1e-05 | < 1e-05 |  |  | 
9 | AUAAAAGCGGCAGAACUACAGAAAUGUAGUUGACGAGGAGGAGGUUUUUCGAAUUUUCGGCGGAUGCCUCCAAA [C10G A48U] | < 1e-05 | < 1e-05 | < 1e-05 | < 1e-05 | < 1e-05
10 | AUAAAAGCGCCAGAACUACAGAAAUGUAGUUGACGAAGAGGAGGUUUAUGGAAUUUUCGGCGGAUGCCUGCAAA [G37A C50G C70G] | 4.31e-05 ± 2.1e-05 |  |  |  | 
11 | AUAAAAGCGCCAGAAUUACAGAAAUGUAGUUGACGAGGAGGAGGUUUAUCGAAUUGUCGGCGGAUGCCUCCAAA [C16U U56G] | 0.000579 ± 9.9e-05 | 0.000979 ± 0.0002 | 0.00302 ± 0.00067 | 0.0241 ± 0.0047 | 0.00709 ± 0.0016
12 | AUAAAAGCGCCAGAACUACAGAAAUGUAGUUGACGAGGAGGGUGUUUAUCGAAUUUUCGGCGGAUGCCUUCAAA [A42G G43U C70U] | < 1e-05 |  |  | < 1e-05 | 
13 | AUAAAAGCGCCAGAACUACAGAAAUGUAGUUGACGAGGAGGAGGUUUAUCGAAUUUUCGGCGGCUGCGUGCAAA [A64C C68G C70G] | < 1e-05 |  | < 1e-05 |  | < 1e-05
14 | AUAAAAGCGCCAGAACUACAGAAAUGUAGUUGACGUGCAGGAGGUUUAUCGACUUUUCGGCGGAUGCCUCCAAA [A36U G38C A53C] | < 1e-05 |  |  |  | 
15 | AUAAAGGCGCCAGAACUACAGAAAUGUAGUCGACGAGGAGGAGGUUUAUCGAAUGUUCGGCGGAUGCCUCCAAA [A6G U31C U55G] | < 1e-05 |  |  | 5.16e-05 ± 1.9e-05 | 4.23e-05 ± 1.7e-05
16 | AUAAAAGCGCCCGAACUACAGAAAUGUAGUUGCCGAGGAGGAGGUUUAUCGAAUUUUCGGCGGAUGCCUCGAAA [A12C A33C C71G] | < 1e-05 |  |  | < 1e-05 | 
